Positions count from the first letter of the chain named. One block for each binder: values may come before it.
How the values were obtained:
[1] = target: T1, human IL-18 (human, UniProt Q14116 37-193); assay: BIAcore optical biosensor, 25 C; mAb captured on anti-rat IgG Fc surface, IL-18 injected
T1 construct: Injected in solution over captured mAb in the BIAcore assays; also called human interleukin-18; recombinant IL-18
T1 sequence (looked up): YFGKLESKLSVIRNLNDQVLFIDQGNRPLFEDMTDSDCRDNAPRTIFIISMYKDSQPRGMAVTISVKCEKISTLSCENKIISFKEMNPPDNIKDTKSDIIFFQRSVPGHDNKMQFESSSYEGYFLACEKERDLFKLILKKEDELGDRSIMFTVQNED
Experimental: (§1) Kinetic data was evaluated using relationships described previously (Karlsson et al, J. Immunol. Meth., 145:229-240 (1991) and which is incorporated by reference in its entirely. The mAb (diluted in HBS buffer, 10 mM HEPES, 150 mM NaCl, 0.01% Tween-20. pH 7.4) was injected over a rabbit anti-mouse IgG Fc or goat anti-rat IgG Fc surface, followed by buffer flow and the RU was recorded. IL-18 (diluted in HBS buffer) was then injected for 180 seconds followed by a buffer flow for 500 seconds and the RU was recorded. The sensor chip surface was regenerated by an injection of 0.1 M phosphoric acid.

[2] = target: T1, human IL-18; assay: cell-based or functional assay
[3] = target: T1, human IL-18; assay: BIAcore optical biosensor, 25 C; mAb captured on anti-mouse IgG Fc surface, IL-18 injected
Experimental: as §1

Kd [1]: 0.039 nM
Neutralisation IC50 [2]: 0.1 nM
B1: rat monoclonal antibody 2C10 (antibody, IgG1, V domains shown)
VH: EVQLQQSGAELVRPGTSVKLSCKVSGEISTGYYFHFVRRRPGQGLEWIGRIDPEDDSTKYAERFKDRATLTAQTSSNTAYLNLSSLTSEDTATYFCTTWRIYRDSSGRPFYVMDAWGQGASVTVSS
VL: DIQMTQSPASLSASLGETVSIECLASEDIYTYLTWYQQKPGKSPQLLIYGANKLQDGVPSRFSGSGSGTQYSLKISGIQPEDEGDYFCLQGSKFPLTFGSGTKLEIKR
notes: Mab purified from a rat hybridoma, isotype IgG1 kappa; also called mAb 2C10; 2C10 (rat)

Kd [1]: 0.15 nM
Neutralisation IC50 [2]: 0.2 nM
B2: rat monoclonal antibody 14B7 (antibody, IgG1, V domains shown)
VH: EVQLQQSGAELVRPGTSVKFSCKVSGDTPTTYYVHFVRQRPGQGLEWIGRIDPEDTSTKYAEKFRNKATFTADPSSNTAYLNLSSLTPEDTATYFCTIMRYHSTYRVYVMDFWGQGTAVTVS
VL: B1 VL with T31S, T34A, G50A, A51T, N52K, K53R, G77D, I78M, G91N, L96V
notes: Mab purified from a rat hybridoma, isotype IgG1 kappa; also called mAb 14B7; 14B7 (rat)

Kd [3]: 12 nM
Neutralisation IC50 [2]: 3 nM
B3: murine monoclonal antibody 13G9 (antibody, IgG1, V domains shown)
VH: QVTLKESGPGILKPSQTLSLTCSFSGFSLSTSGMGIAWVRQPSGKGLEWLADIWWDDNKYYNPSLESQLTISKDTSRNQVFLTITSVDTADSATYYCARHHYDGSSLLPMDYWGQGTSVTVSS
VL: DVVMTQTPLSLPVSLGDQASISCRSSQSLVHSNGNTYLHWYLQKPGQSPKLLIYKVSNRFSGVPDRFSGSGSGTDFTLKISRVEAEDLGVYFCSQSTHVPPYTFGGGTKLEIKR
notes: Mab purified from a mouse hybridoma, isotype IgG1 kappa; also called mAb 13G9; 13G9 (mouse)
